Molecular target: synthetic peptide 89-122 of Eg 6 (Echinococcus granulosus)
Experiment: ELISA on bound peptide, ascites diluted to 1/100 (control)

myeloma ascites (SP2/0) (polyclonal serum or antibody)
mean of the optical densities (optical density): 0.12
